Measured values reported in publication PMC8113581 (2021).

Target: SARS-CoV-2 RBD (WT) (SARS-CoV-2, UniProt P0DTC2)
Assay: SPR

B1: P4A1 (antibody, V domains shown)
VH: EVQLVESGGGLIQPGGSLRLSCAASGFIVSSNYMSWVRQAPGKGLEWVSIIYSGGSTFYADSVKGRFTISRDNSKNTLYLQMNSLRVEDTAVYYCARDLQELGSLDYWGQGTLVTVSS
VL: DIQMTQSPSSVSASVGDRVTITCRASQGISSWLAWYQQKPGKAPKLLIYAASSLQSGVPSRFSGSGSGTDFTLTISSLQPEDFATYYCQEANSFPYTFGQGTKLEIK
  Kd: 0.102 nM
